Test system: plasma derived alpha-1 antitrypsin (AAT)

## recombinant active caspase-1
  caspase-1 activity (in arbitrary units), colorimetric substrate, in vitro with recombinant active caspase-1: AAT has a direct inhibitory effect on caspase-1 activity in vitro

Reference: patent publication US20130195859
